Assay results: the supplement of paper PMC9116672
± gives the standard deviation of the averaged measurements or the uncertainty stated by the source.

Columns and labels:
[1] = duplex melting temperature (HRM, EvaGreen); higher = more stable duplex
Method: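 Listed DNA strand annealed 1:1 with its complementary strand (95 °C 5 min, 0.1 °C/s to 20 °C). Melted in 1x NNE buffer (500 mM NaCl, 10 mM Na2HPO4, 1 mM EDTA, pH 7.0) with 1x EvaGreen on a LightCycler96 (37 to 97 °C, 0.1 °C/s). Tm is the peak of -dF/dT at the stated total duplex concentration; 4 replicates are averaged. PS oligos are non-stereospecific (Rp/Sp mixtures).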

[2] = duplex formation free energy ΔG50 (Van't Hoff fit of HRM Tm); higher = less stable duplex; details: temperature for dG: 50 °C, NaCl: 500 mM (unadjusted)
Method: (§1)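 Duplex of the listed DNA strand with its complement, in 1x NNE buffer (500 mM NaCl, pH 7.0) with 1x EvaGreen. ΔH and ΔS come from a Van't Hoff linear fit of 1/Tm against ln(CT/4) over 1-20 uM, using HRM Tm values.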

[3] = duplex formation enthalpy ΔH (Van't Hoff fit of HRM Tm); higher = less exothermic duplex formation; details: temperature for dG: 50 °C, NaCl: 500 mM (unadjusted)
Method: as §1

[4] = duplex formation entropy ΔS (Van't Hoff fit of HRM Tm); higher = smaller entropy loss on duplex formation; details: temperature for dG: 50 °C, NaCl: 500 mM (unadjusted)
Method: as §1

[5] = duplex concentration 1 µM, backbone: PO-PO (both strands phosphodiester DNA)
[6] = duplex concentration 1 µM, backbone: PS-PO (listed strand fully phosphorothioate, complement phosphodiester)
[7] = duplex concentration 1 µM, backbone: PS-PS (both strands fully phosphorothioate)
[8] = duplex concentration 2.5 µM, backbone: PO-PO (both strands phosphodiester DNA)
[9] = duplex concentration 2.5 µM, backbone: PS-PO (listed strand fully phosphorothioate, complement phosphodiester)
[10] = duplex concentration 2.5 µM, backbone: PS-PS (both strands fully phosphorothioate)
[11] = duplex concentration 5 µM, backbone: PO-PO (both strands phosphodiester DNA)
[12] = duplex concentration 5 µM, backbone: PS-PO (listed strand fully phosphorothioate, complement phosphodiester)
[13] = duplex concentration 5 µM, backbone: PS-PS (both strands fully phosphorothioate)
[14] = duplex concentration 7.5 µM, backbone: PO-PO (both strands phosphodiester DNA)
[15] = duplex concentration 7.5 µM, backbone: PS-PO (listed strand fully phosphorothioate, complement phosphodiester)
[16] = duplex concentration 7.5 µM, backbone: PS-PS (both strands fully phosphorothioate)
[17] = duplex concentration 10 µM, backbone: PO-PO (both strands phosphodiester DNA)
[18] = duplex concentration 10 µM, backbone: PS-PO (listed strand fully phosphorothioate, complement phosphodiester)
[19] = duplex concentration 10 µM, backbone: PS-PS (both strands fully phosphorothioate)
[20] = duplex concentration 15 µM, backbone: PO-PO (both strands phosphodiester DNA)
[21] = duplex concentration 15 µM, backbone: PS-PO (listed strand fully phosphorothioate, complement phosphodiester)
[22] = duplex concentration 15 µM, backbone: PS-PS (both strands fully phosphorothioate)
[23] = duplex concentration 20 µM, backbone: PO-PO (both strands phosphodiester DNA)
[24] = duplex concentration 20 µM, backbone: PS-PO (listed strand fully phosphorothioate, complement phosphodiester)
[25] = duplex concentration 20 µM, backbone: PS-PS (both strands fully phosphorothioate)
[26] = backbone: PO-PO (both strands phosphodiester DNA)
[27] = backbone: PS-PO (listed strand fully phosphorothioate, complement phosphodiester)
[28] = backbone: PS-PS (both strands fully phosphorothioate)

Row | Sequence | duplex melting temperature [1, 5] | duplex melting temperature [1, 6] | duplex melting temperature [1, 7] | duplex melting temperature [1, 8] | duplex melting temperature [1, 9] | duplex melting temperature [1, 10] | duplex melting temperature [1, 11] | duplex melting temperature [1, 12] | duplex melting temperature [1, 13] | duplex melting temperature [1, 14] | duplex melting temperature [1, 15] | duplex melting temperature [1, 16] | duplex melting temperature [1, 17] | duplex melting temperature [1, 18] | duplex melting temperature [1, 19] | duplex melting temperature [1, 20] | duplex melting temperature [1, 21] | duplex melting temperature [1, 22] | duplex melting temperature [1, 23] | duplex melting temperature [1, 24] | duplex melting temperature [1, 25] | duplex formation free energy ΔG50 [2, 26] | duplex formation free energy ΔG50 [2, 27] | duplex formation free energy ΔG50 [2, 28] | duplex formation enthalpy ΔH [3, 26] | duplex formation enthalpy ΔH [3, 27] | duplex formation enthalpy ΔH [3, 28] | duplex formation entropy ΔS [4, 26] | duplex formation entropy ΔS [4, 27] | duplex formation entropy ΔS [4, 28]
1 | GCTGTGAAACAATGTAG | 60.4 ± 1.3 °C | 52.85 ± 0.06 °C | 43.66 ± 0.19 °C | 62.76 ± 0.31 °C | 55.41 ± 0.29 °C | 45.72 ± 0.19 °C | 64.54 ± 0.42 °C | 57.39 ± 0.24 °C | 47.54 ± 0.13 °C | 65.61 ± 0.42 °C | 58.44 ± 0.21 °C | 48.34 ± 0.13 °C | 66.58 ± 0.4 °C | 59.19 ± 0.24 °C | 49.09 ± 0.059 °C | 67.8 ± 0.33 °C | 60.21 ± 0.11 °C | 50.25 ± 0.24 °C | 68.65 ± 0.32 °C | 61.12 ± 0.092 °C | 51.09 ± 0.3 °C | -12.3 ± 0.16 kcal/mol | -10.46 ± 0.049 kcal/mol | -8.078 ± 0.024 kcal/mol | -82.5 ± 3.5 kcal/mol | -78.8 ± 1.9 kcal/mol | -82.8 ± 2.5 kcal/mol | -217 ± 10 cal/mol/K | -211 ± 5.7 cal/mol/K | -231 ± 7.8 cal/mol/K
2 | GGTGGCGTTCTT | – | – | 40.15 ± 0.21 °C | 61.9 °C | – | 44.6 ± 0.65 °C | 63 ± 0.79 °C | – | 48.03 ± 0.26 °C | 64.6 ± 0.54 °C | 57 °C | 49.76 ± 0.44 °C | 65.58 ± 0.13 °C | 58.31 ± 0.53 °C | 51.3 ± 0.97 °C | 66.42 ± 0.23 °C | 60.44 ± 0.39 °C | 53.7 ± 1.4 °C | 67.68 ± 0.13 °C | 61.54 ± 0.24 °C | 55.8 ± 0.86 °C | – | -9.41 ± 0.08 kcal/mol | -8.491 ± 0.033 kcal/mol | – | -45.3 ± 2.7 kcal/mol | -41.1 ± 3.2 kcal/mol | – | -111 ± 8.2 cal/mol/K | -101 ± 9.8 cal/mol/K
3 | GGTTGCGGTGGCCAAC | – | – | – | 72.47 ± 0.19 °C | – | – | 74.78 ± 0.39 °C | 59.24 ± 0.17 °C | – | 75.96 ± 0.48 °C | 59.89 ± 0.26 °C | 53.12 ± 0.24 °C | 76.87 ± 0.44 °C | 60.61 ± 0.24 °C | 53.68 ± 0.31 °C | 77.98 ± 0.31 °C | 61.52 ± 0.21 °C | 54.3 ± 0.32 °C | 78.76 ± 0.29 °C | 62.17 ± 0.44 °C | 54.47 ± 0.31 °C | -14.7 ± 0.36 kcal/mol | – | – | -83.4 ± 4.7 kcal/mol | – | – | -213 ± 13 cal/mol/K | – | –
4 | GTCATTGTGCTTTTGC | 60.6 °C | 49.8 ± 0.38 °C | 45.054 ± 0.018 °C | 63.26 ± 0.54 °C | 52.96 ± 0.069 °C | 46.77 ± 0.14 °C | 65.29 ± 0.25 °C | 55.24 ± 0.19 °C | 48.65 ± 0.052 °C | 66.35 ± 0.14 °C | 56.46 ± 0.16 °C | 49.65 ± 0.053 °C | 67.27 ± 0.084 °C | 57.2 ± 0.17 °C | 50.58 ± 0.096 °C | 68.53 ± 0.17 °C | 58.37 ± 0.089 °C | 51.65 ± 0.14 °C | 69.4 ± 0.17 °C | 59.15 ± 0.096 °C | 52.76 ± 0.13 °C | -12.27 ± 0.096 kcal/mol | -9.798 ± 0.043 kcal/mol | -8.432 ± 0.028 kcal/mol | -78.5 ± 1.9 kcal/mol | -69.8 ± 2.2 kcal/mol | -79.9 ± 3.5 kcal/mol | -205 ± 5.7 cal/mol/K | -186 ± 6.7 cal/mol/K | -221 ± 11 cal/mol/K
5 | GTGAAACAATGCTGTAG | 60.8 °C | – | 43.88 ± 0.29 °C | 62.87 ± 0.2 °C | 56.26 ± 0.25 °C | 46.82 ± 0.2 °C | 65.1 ± 0.46 °C | 58.51 ± 0.13 °C | 48.72 ± 0.15 °C | 66.14 ± 0.17 °C | 59.58 ± 0.12 °C | 49.72 ± 0.1 °C | 67.07 ± 0.17 °C | 60.43 ± 0.12 °C | 50.48 ± 0.19 °C | 68.31 ± 0.14 °C | 61.59 ± 0.25 °C | 51.63 ± 0.11 °C | 69.27 ± 0.11 °C | 62.36 ± 0.4 °C | 52.66 ± 0.18 °C | -12.1 ± 0.14 kcal/mol | -10.63 ± 0.061 kcal/mol | -8.41 ± 0.018 kcal/mol | -76.6 ± 3 kcal/mol | -75.5 ± 2 kcal/mol | -72.1 ± 2 kcal/mol | -199 ± 8.8 cal/mol/K | -201 ± 6.2 cal/mol/K | -197 ± 6.4 cal/mol/K
6 | GTGAGCAGAAGGGGTT | 64.4 ± 0.57 °C | 59.41 ± 0.21 °C | 51.01 ± 0.18 °C | 66.59 ± 0.48 °C | 62.57 ± 0.13 °C | 54.75 ± 0.25 °C | 68.752 ± 0.066 °C | 64.68 ± 0.15 °C | 56.88 ± 0.17 °C | 70.17 ± 0.27 °C | 66 ± 0.37 °C | 58.06 ± 0.31 °C | 71.2 ± 0.18 °C | 66.75 ± 0.18 °C | 58.956 ± 0.043 °C | 72.73 ± 0.15 °C | 68.05 ± 0.21 °C | 60.17 ± 0.3 °C | 73.73 ± 0.092 °C | 69.05 ± 0.47 °C | 60.93 ± 0.33 °C | -12.7 ± 0.19 kcal/mol | -11.81 ± 0.093 kcal/mol | -10.06 ± 0.071 kcal/mol | -71 ± 3.3 kcal/mol | -71.4 ± 2 kcal/mol | -66.3 ± 3 kcal/mol | -180 ± 9.6 cal/mol/K | -184 ± 6 cal/mol/K | -174 ± 8.9 cal/mol/K
7 | GTGGTACAAATGCGACC | 66.7 °C | 58.59 ± 0.28 °C | 49.91 ± 0.4 °C | 68.46 ± 0.35 °C | 61.19 ± 0.13 °C | 52.86 ± 0.053 °C | 70.27 ± 0.1 °C | 63.12 ± 0.081 °C | 54.891 ± 0.046 °C | 71.34 ± 0.084 °C | 64.14 ± 0.075 °C | 55.93 ± 0.084 °C | 72.06 ± 0.12 °C | 65.04 ± 0.1 °C | 56.63 ± 0.12 °C | 73.205 ± 0.062 °C | 66.133 ± 0.0075 °C | 57.534 ± 0.054 °C | 74.14 ± 0.12 °C | 66.91 ± 0.08 °C | 58.25 ± 0.083 °C | -13.92 ± 0.12 kcal/mol | -11.87 ± 0.036 kcal/mol | -9.816 ± 0.052 kcal/mol | -88 ± 1.9 kcal/mol | -80.9 ± 0.88 kcal/mol | -77.3 ± 2.9 kcal/mol | -229 ± 5.5 cal/mol/K | -214 ± 2.6 cal/mol/K | -209 ± 8.9 cal/mol/K
8 | TAATTATACGAGTAGTTTCTGTCCTG | 71.48 ± 0.47 °C | 62.1 ± 1.3 °C | 53.5 ± 0.9 °C | 72.48 ± 0.47 °C | 63.7 ± 0.66 °C | 55.8 ± 0.57 °C | 73.57 ± 0.43 °C | 65.23 ± 0.59 °C | 57.27 ± 0.51 °C | 74.63 ± 0.29 °C | 65.94 ± 0.5 °C | 58.41 ± 0.21 °C | 75.37 ± 0.084 °C | 66.63 ± 0.26 °C | 59.23 ± 0.13 °C | 76.277 ± 0.049 °C | 67.43 ± 0.14 °C | 60.07 ± 0.12 °C | 77.05 ± 0.094 °C | 67.855 ± 0.049 °C | 60.84 ± 0.17 °C | -17.6 ± 0.68 kcal/mol | -13.9 ± 0.21 kcal/mol | -10.75 ± 0.039 kcal/mol | -127 ± 9.7 kcal/mol | -115 ± 4.5 kcal/mol | -89.9 ± 1.6 kcal/mol | -340 ± 28 cal/mol/K | -312 ± 13 cal/mol/K | -245 ± 4.8 cal/mol/K
9 | TACTTCCAACGTAGG | – | 49.1 °C | 45.032 ± 0.023 °C | 59.72 ± 0.33 °C | 51.72 ± 0.075 °C | 45.59 ± 0.28 °C | 62 ± 0.17 °C | 55.02 ± 0.098 °C | 47.2 ± 0.46 °C | 63.52 ± 0.17 °C | 56.5 ± 0.21 °C | 48.26 ± 0.23 °C | 64.46 ± 0.077 °C | 57.42 ± 0.17 °C | 49.7 ± 0.78 °C | 66.07 ± 0.095 °C | 58.63 ± 0.099 °C | 50.85 ± 0.34 °C | 67.22 ± 0.12 °C | 59.46 ± 0.12 °C | 51.9 ± 0.73 °C | -10.98 ± 0.06 kcal/mol | -9.629 ± 0.064 kcal/mol | – | -62.5 ± 1.4 kcal/mol | -61.3 ± 3 kcal/mol | – | -159 ± 4.2 cal/mol/K | -160 ± 9.1 cal/mol/K | –
